Assay [1] deals with bovine type I collagen (bovine) (UniProt P02453).
Assay [2] shares this target. The assay is described as follows: SPR, BIAcore 3000, collagen immobilized on CM5 chip. A general note: SPR reads the build-up and loss of mass on a sensor chip optically.
For assay [3] the target is unchanged. The assay is described as follows: SPR, from the kinetic rates ka and kd; SPR, from ka and kd.
The target is the same in assay [4]. Put plainly: SPR, equilibrium responses, one-site-binding nonlinear regression.
Assay [5] has the same target. Put plainly: SPR, Scatchard analysis of equilibrium responses; SPR, Scatchard analysis.
The target is the same in assay [6]. This is another data set of the same source.

Like-named read-outs stand apart in the source and are kept apart here.

A word on the Kd: it is the equilibrium constant for the complex coming apart. For orientation: koff means a measure of how fast the partners let go of each other. The term kon denotes a measure of how fast the partners come together.

Chain of UniProt P02453 (P02453 162-1217 limits assumed, chain 1 of 2): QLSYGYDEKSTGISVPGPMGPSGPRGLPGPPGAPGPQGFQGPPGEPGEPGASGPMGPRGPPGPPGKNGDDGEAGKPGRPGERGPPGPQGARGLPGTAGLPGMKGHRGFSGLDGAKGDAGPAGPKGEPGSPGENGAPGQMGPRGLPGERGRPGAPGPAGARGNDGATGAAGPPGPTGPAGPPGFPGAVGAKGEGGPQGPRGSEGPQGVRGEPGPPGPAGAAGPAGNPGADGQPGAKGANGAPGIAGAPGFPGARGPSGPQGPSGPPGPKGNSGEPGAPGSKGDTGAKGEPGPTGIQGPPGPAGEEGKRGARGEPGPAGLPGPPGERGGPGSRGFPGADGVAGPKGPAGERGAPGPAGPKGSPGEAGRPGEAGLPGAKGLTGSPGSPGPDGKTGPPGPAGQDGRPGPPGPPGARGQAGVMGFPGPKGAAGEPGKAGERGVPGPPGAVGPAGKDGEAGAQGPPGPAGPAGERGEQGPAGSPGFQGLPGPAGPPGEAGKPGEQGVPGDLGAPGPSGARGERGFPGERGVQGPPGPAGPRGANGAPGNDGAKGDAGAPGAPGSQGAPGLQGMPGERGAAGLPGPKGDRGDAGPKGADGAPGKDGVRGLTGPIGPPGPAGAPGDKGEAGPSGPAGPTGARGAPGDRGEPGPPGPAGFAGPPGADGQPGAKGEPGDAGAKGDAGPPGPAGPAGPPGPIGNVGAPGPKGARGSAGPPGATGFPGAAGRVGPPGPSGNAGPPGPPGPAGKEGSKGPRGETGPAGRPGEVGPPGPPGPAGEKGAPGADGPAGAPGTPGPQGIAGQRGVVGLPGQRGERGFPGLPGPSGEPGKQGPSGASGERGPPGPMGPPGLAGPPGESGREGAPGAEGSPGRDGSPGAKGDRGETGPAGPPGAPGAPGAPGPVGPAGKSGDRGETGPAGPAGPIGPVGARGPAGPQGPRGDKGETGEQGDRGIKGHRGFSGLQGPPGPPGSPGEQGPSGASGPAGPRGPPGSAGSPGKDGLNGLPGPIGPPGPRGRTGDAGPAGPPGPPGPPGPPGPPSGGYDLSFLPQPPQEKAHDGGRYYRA
Chain of UniProt P02453 (P02465 80-1117 limits assumed, chain 2 of 2, further chain): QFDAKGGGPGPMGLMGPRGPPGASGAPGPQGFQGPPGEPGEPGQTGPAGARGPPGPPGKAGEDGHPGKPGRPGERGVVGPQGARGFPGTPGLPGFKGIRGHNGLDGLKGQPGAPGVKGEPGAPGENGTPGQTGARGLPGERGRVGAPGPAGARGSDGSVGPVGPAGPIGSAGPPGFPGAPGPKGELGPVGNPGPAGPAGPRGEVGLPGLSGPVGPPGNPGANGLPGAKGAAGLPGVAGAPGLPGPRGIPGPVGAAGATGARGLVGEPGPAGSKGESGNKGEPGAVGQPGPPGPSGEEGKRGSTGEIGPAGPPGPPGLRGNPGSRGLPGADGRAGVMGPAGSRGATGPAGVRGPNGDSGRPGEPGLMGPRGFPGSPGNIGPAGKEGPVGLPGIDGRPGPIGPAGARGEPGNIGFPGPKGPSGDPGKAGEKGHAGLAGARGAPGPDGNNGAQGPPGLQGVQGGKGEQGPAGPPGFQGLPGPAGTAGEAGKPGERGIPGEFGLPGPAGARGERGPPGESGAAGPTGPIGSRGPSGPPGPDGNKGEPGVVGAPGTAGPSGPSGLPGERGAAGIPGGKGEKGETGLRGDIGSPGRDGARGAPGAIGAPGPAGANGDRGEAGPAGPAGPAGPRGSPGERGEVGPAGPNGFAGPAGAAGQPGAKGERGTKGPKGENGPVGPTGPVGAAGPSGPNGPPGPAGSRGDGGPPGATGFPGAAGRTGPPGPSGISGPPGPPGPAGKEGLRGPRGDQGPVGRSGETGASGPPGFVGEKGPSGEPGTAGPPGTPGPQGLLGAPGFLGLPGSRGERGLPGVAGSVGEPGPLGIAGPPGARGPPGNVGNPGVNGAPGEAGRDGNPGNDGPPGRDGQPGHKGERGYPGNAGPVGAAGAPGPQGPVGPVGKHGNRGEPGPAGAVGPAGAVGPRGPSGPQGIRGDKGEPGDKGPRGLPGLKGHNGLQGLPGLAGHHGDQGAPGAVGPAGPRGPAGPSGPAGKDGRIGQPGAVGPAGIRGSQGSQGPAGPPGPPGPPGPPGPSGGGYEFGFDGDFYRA

Regarding “rBA0871A, recombinant His-tag fusion protein of the A region (amino acid residues 42-765) of BA0871”, the Kd turned out to be 190 nM in assay [1], 1600 nM in assay [3], 3200 nM in assay [4] and 2400 nM in assay [5]. Further, the koff in assay [2] came to 0.0043 s⁻¹. Also, the on-rate (kon) in assay [2] was found to be 2800 M⁻¹ s⁻¹.
As for “rBA5258A, recombinant His-tag fusion protein of the A region (amino acid residues 32-366) of BA5258”, the Kd in assay [1] was determined as 30 nM; in assay [6], 600 nM; in assay [4], 900 nM.

Source of the values: patent US20060198852A1.
